Tests used:
yeast Hsp104 protein = yeast Hsp104 protein (UniProt P31539)
Rnq1 (S. cerevisiae) = Rnq1 (S. cerevisiae) (UniProt P25367)

Chain of yeast Hsp104 protein (P31539 whole entry): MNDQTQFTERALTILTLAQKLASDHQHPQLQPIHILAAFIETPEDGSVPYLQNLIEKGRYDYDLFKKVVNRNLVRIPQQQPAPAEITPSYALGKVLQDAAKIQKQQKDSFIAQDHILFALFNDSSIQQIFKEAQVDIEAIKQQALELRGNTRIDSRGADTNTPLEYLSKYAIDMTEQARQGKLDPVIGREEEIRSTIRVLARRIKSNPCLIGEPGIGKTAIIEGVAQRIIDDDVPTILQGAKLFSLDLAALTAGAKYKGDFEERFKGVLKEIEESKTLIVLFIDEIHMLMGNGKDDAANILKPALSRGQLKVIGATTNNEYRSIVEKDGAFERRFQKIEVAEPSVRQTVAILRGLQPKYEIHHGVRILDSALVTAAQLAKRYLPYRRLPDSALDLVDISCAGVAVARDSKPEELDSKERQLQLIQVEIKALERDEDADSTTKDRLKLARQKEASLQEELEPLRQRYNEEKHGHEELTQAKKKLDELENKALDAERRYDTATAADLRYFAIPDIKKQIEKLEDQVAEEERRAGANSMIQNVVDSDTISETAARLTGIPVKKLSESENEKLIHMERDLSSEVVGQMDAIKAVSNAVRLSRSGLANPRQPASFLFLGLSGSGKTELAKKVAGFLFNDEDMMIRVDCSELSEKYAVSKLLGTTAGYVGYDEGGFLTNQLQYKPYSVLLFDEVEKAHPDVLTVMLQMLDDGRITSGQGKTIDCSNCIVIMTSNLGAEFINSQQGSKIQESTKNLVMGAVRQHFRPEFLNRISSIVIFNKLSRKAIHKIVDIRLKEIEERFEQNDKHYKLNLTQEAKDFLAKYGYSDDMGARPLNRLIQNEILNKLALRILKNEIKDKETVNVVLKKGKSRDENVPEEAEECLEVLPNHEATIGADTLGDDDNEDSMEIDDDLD

Row | Substance | ATPase activity of Hsp104 (released phosphate, Malachite Green) (yeast Hsp104 protein) | lag time of Thioflavin T fluorescence increase, seeded with 2% preformed fibers (Rnq1 (S. cerevisiae)) [h] | lag time of Thioflavin T fluorescence increase, unseeded (Rnq1 (S. cerevisiae)) [h]
1 | aldolase | did not |  | 
2 | Rnq1 (from UniProt P25367 1-405) |  | 4.3 | 6.4
